Here are results for one molecule from publication PMC8664846, “Heterogeneous dissociation process of truncated RNAs by oligomerized Vasa helicase” (Communications Biology, 2021).

For data set [1], the target named is T1, Siwi-piRISC (FLAG-Siwi loaded with piRNA) (Bombyx mori, UniProt A8D8P8 1-899).
T1 construct: Siwi (Silkworm Piwi), PIWI protein of Bombyx mori; In the assay Siwi carried piRNA (exogenous piRNA-4) and was held on the glass through the biotinylated, ATTO647N-labelled target RNA; the only protein chain is Siwi; also called Silkworm Piwi; source: BmN4 cells, purified (anti-FLAG gel column)
T1 sequence (looked up): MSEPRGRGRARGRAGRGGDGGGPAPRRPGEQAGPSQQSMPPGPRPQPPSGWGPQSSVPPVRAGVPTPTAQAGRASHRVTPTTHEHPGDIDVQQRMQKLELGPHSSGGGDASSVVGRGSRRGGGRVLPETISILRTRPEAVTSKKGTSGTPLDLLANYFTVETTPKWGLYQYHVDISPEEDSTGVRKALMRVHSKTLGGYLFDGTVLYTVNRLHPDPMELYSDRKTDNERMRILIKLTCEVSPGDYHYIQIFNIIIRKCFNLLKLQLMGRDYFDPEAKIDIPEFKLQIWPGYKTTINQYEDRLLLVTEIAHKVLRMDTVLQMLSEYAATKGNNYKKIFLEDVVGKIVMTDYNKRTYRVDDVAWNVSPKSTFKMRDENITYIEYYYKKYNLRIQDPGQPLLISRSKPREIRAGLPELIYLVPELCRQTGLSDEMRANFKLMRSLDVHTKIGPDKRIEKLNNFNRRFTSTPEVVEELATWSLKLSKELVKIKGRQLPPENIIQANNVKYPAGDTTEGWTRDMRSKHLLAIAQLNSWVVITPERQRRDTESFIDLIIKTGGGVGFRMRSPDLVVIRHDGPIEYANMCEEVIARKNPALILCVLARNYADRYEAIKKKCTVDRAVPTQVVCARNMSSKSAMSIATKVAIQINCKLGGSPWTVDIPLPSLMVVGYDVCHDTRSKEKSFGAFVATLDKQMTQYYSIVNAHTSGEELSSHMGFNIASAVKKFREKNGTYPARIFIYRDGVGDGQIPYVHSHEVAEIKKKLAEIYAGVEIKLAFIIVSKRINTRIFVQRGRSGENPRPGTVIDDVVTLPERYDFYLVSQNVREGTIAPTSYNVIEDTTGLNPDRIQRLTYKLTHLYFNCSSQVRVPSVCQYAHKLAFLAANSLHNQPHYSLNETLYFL
The experiment in a line: single-molecule two (or three)-colour colocalisation (TIRF microscopy); premix of 10 nM biotinylated ATTO647N target RNA, 625 nM TMR-Vasa and 380 nM Siwi fixed on the surface by avidin-biotin through the target RNA; exogenous piRNA-4; assay buffer with oxygen scavenger; no ATP. The settings on record: both partners purified.

Data set [2] deals with the molecule itself. Description: single-molecule fluorescence intensity counting (TIRF microscopy); TMR-labelled Vasa adsorbed on poly-L-lysine-coated glass; number of molecules in a spot from the intensity of a single TMR; 30 mM HEPES pH 7.3, 150 mM potassium acetate, 5 mM magnesium acetate, 0.1% NP-40, 500 uM TCEP, oxygen scavengers; with 5 ug/ml yeast RNA further oligomerization.

B1: FLAG-Halo-Vasa (wild-type Bombyx mori Vasa) (enzyme, UniProt O01378 1-601, looked up)
chain: MDDDWDDSCEAVVVPPPPLQNHDSVDEGHSLSRGRGFPSFNEDDEKENGYGERRGRGGRGGGRGRGGRGGRGGSREQHSDYETNGDHDDRGRGERGRGRGRGGRGGGRGGGGGGGDRNDYEDNEIGENGETKKPVTYVPPEPTNDETEIFSSTISSGINFDKFDHIAVKVSGENPPRPIESFETANLRKYVLDNVLKAGYRKPTPIQKNAIPIIMSGRDLMGCAQTGSGKTAAFLVPIINMLLQDPKDLISENGCAQPQVIIVSPTRELTLQIFNEARKFSYGSVLKVAVAYGGTAVRHQGDNIARGCHILVATPGRLHDFVERNRVSFGSVRFVVLDEADRMLDMGFMPSIEKMMLHPTMVETTKRQTLMFSATFPEDIQHLAGRFLNNYLFVAVGIVGGASTDVEQIFIEVTKYEKRNSLKQLIEENDGKRILVFVETKRNADFIAAMLSEQQLLTSSIHGDRMQREREEALQNFKSGKHCILVATAVAARGLDIKNVDIVVNYDLPKSIDEYVHRIGRTGRVGNRGKAVSFYDSDQDLALVADLSKILRQADQSVPDFLKGGGTATFKGNKYGGSDVRNFNNANTAVVDQGQEPEEEW
modifications: TMR-labelled HaloTag ligand on the HaloTag; the immobilised copy in the aggregation measurement also labelled with Biotin-XX-NHS
notes: Vasa, ATP-dependent DEAD-box RNA helicase of Bombyx mori, wild type; Non-fluorescent Vasa was used only in RNA dissociation assays; also called WT-Vasa; TMR-Vasa; source: BmN4 cells, purified (anti-FLAG gel column); not shown: HaloTag, N-terminal, kept
Usually stoichiometry N stands for a count of units in the complex or per binding partner. B1: the binding result in data set [1] is “binds”. Besides, the “stoichiometry N” value in data set [2] amounted to 2.
